The labels stand for the following.
B2: Mcm7 (natural protein)
chain: MSAALPSIQLPVDYNNLFNEITDFLVTFKQDTLSSDATRNENEDENLDAENIEQHLLEKGPKYMAMLQKVANRELNSVIIDLDDILQYQNEKFLQGTQADDLVSAIQQNANHFTELFCRAIDNNMPLPTKEIDYKDDVLDVILNQRRLRNERMLSDRTNEIRSENLMDTTMDPPSSMNDALREVVEDETELFPPNLTRRYFLYFKPLSQNCARRYRKKAISSKPLSVRQIKGDFLGQLITVRGIITRVSDVKPAVEVIAYTCDQCGYEVFQEVNSRTFTPLSECTSEECSQNQTKGQLFMSTRASKFSAFQECKIQELSQQVPVGHIPRSLNIHVNGTLVRSLSPGDIVDVTGIFLPAPYTGFKALKAGLLTETYLEAQFVRQHKKKFASFSLTSDVEERVMELITSGDVYNRLAKSIAPEIYGNLDVKKALLLLLVGGVDKRVGDGMKIRGDINVCLMGDPGVAKSQLLKAICKISPRGVYTTGKGSSGVGLTAAVMKDPVTDEMILEGGALVLADNGICCIDEFDKMDESDRTAIHEVMEQQTISISKAGINTTLNARTSILAAANPLYGRYNPRLSPLDNINLPAALLSRFDILFLMLDIPSRDDDEKLAEHVTYVHMHNKQPDLDFTPVEPSKMREYIAYAKTKRPVMSEAVNDYVVQAYIRLRQDSKREMDSKFSFGQATPRTLLGIIRLSQALAKLRLADMVDIDDVEEALRLVRVSKESLYQETNKSKEDESPTTKIFTIIKKMLQETGKNTLSYENIVKTVRLRGFTMLQLSNCIQEYSYLNVWHLINEGNTLKFVDDGTMDTDQEDSLVSTPKLAPQTTASANVSAQDSDIDLQDA

Common to all, as to experiment: cryo-EM structure
The assay “Mcm7” addresses B2.
A further assay addresses Mcm3 (S. cerevisiae, UniProt P24279 1-971).
The target in another assay is T1, Mcm4 (S. cerevisiae, UniProt P30665 1-933).
T1 sequence: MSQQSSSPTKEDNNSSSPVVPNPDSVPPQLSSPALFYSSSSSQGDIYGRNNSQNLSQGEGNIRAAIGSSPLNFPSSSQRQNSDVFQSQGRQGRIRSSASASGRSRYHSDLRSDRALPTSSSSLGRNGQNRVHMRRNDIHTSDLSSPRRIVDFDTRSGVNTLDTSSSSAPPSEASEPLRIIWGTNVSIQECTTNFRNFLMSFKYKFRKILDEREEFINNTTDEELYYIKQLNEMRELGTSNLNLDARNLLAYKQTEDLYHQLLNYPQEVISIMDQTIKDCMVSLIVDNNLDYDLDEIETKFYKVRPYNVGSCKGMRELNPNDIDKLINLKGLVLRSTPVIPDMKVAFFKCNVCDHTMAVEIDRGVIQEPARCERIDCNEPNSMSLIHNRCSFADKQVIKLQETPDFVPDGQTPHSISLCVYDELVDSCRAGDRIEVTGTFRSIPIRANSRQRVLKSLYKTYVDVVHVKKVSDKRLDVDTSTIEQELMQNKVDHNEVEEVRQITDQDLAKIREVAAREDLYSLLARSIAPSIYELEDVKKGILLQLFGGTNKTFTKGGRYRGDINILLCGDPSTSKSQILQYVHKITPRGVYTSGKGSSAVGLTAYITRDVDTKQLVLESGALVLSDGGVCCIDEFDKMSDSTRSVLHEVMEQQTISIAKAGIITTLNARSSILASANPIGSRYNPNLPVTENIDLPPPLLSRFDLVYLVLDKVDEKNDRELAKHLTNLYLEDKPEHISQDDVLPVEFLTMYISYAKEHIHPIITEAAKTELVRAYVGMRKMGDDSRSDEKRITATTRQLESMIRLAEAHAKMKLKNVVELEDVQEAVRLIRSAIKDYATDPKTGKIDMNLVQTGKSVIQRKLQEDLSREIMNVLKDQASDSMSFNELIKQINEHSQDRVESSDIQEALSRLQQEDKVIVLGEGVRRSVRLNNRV

Sequence of Mcm3 (P24279 whole entry): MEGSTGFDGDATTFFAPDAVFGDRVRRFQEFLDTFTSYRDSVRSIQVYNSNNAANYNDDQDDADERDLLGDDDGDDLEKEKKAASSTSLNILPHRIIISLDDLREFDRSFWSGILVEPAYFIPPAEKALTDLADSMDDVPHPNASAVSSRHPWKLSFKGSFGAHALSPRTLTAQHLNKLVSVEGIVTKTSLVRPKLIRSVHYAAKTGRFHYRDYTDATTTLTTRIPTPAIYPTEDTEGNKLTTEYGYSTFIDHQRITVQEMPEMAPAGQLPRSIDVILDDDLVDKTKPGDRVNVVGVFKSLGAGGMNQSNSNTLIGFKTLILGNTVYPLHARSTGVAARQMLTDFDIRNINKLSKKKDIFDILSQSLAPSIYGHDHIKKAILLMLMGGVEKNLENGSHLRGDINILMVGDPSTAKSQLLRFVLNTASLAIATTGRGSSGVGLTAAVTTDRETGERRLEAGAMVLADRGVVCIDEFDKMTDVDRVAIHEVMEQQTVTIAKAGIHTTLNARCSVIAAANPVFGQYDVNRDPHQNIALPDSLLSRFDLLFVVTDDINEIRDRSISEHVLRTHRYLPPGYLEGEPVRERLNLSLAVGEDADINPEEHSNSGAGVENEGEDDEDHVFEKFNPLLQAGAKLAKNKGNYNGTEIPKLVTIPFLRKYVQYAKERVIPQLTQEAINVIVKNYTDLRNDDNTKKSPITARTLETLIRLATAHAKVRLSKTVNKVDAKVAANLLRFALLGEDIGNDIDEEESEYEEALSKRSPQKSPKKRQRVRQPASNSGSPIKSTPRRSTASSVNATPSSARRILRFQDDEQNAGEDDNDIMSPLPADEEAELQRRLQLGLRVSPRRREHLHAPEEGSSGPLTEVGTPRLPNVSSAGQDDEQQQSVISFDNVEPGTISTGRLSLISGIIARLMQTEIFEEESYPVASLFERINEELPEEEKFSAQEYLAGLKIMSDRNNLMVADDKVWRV

B1: Mcm5 (natural protein)
chain: MSFDRPEIYSAPVLQGESPNDDDNTEIIKSFKNFILEFRLDSQFIYRDQLRNNILVKNYSLTVNMEHLIGYNEDIYKKLSDEPSDIIPLFETAITQVAKRISILSRAQSANNNDKDPENTSMDTDSLLLNSLPTFQLILNSNANQIPLRDLDSEHVSKIVRLSGIIISTSVLSSRATYLSIMCRNCRHTTSITINNFNSITGNTVSLPRSCLSTIESESSMANESNIGDESTKKNCGPDPYIIIHESSKFIDQQFLKLQEIPELVPVGEMPRNLTMTCDRYLTNKVIPGTRVTIVGIYSIYNSKNGAGSGRSGGGNGGSGVAIRTPYIKILGIQSDVETSSIWNSVTMFTEEEEEEFLQLSRNPKLYEILTNSIAPSIFGNEDIKKAIVCLLMGGSKKILPDGMRLRGDINVLLLGDPGTAKSQLLKFVEKVSPIAVYTSGKGSSAAGLTASVQRDPMTREFYLEGGAMVLADGGVVCIDEFDKMRDEDRVAIHEAMEQQTISIAKAGITTVLNSRTSVLAAANPIYGRYDDLKSPGDNIDFQTTILSRFDMIFIVKDDHNEERDISIANHVINIHTGNANAMQNQQEENGSEISIEKMKRYITYCRLKCAPRLSPQAAEKLSSNFVTIRKQLLINELESTERSSIPITIRQLEAIIRITESLAKLELSPIAQERHVDEAIRLFQASTMDAASQDPIGGLNQASGTSLSEIRRFEQELKRRLPIGWSTSYQTLRREFVDTHRFSQLALDKALYALEKHETIQLRHQGQNIYRSGV
Regarding B1, in the assay with Mcm7, the binding result is on record as “binds”. B2: the binding result with Mcm3 and with Mcm4 was “binds” throughout.

The record behind these values is article PMC5692578 (Proceedings of the National Academy of Sciences of the …, 2017).
